In the supplement of paper PMC10567573 one finds protein stability index data, which are given here for 94 variants.

The labels stand for the following.
B1: KCNK9 (parent)
chain: CFITLTTIGFGDYVALQTKGALQK
B2: RTP4 (parent)
chain: TYWEHWTSQGQVRMRLFGQRCQKC
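Further: lentivirally expressed fusions sorted by FACS into six bins by GFP to DsRed ratio, PSI derived from sequencing read proportions per bin multiplied by bin number.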

The variants in one data set derive from B1. The data set is described as follows: protein stability index of a GFP-peptide fusion (GPS, HEK-293T) (PSI 1-6); higher = more stable. Particulars: c terminus: a fixed tail appended.
Regarding CVITLTTIGFGDYVALQTKGALQK [F2V], the protein stability index is 2.51. Still for that read-out and setting: under CAITLTTIGFGDYVALQTKGALQK [F2A] stands 1.82; under CLITLTTIGFGDYVALQTKGALQK [F2L], 3.17; under CTITLTTIGFGDYVALQTKGALQK [F2T], 2.04. Still for that read-out and setting: under CQITLTTIGFGDYVALQTKGALQK [F2Q] stands 1.82.

Take CNITLTTIGFGDYVALQTKGALQK [F2N]: the protein stability index is 1.61. The same measure, in the same setting: under CSITLTTIGFGDYVALQTKGALQK [F2S] stands 2.72; under CGITLTTIGFGDYVALQTKGALQK [F2G], 2.02.

As for CCITLTTIGFGDYVALQTKGALQK [F2C], the protein stability index was 2.23.

Turning to CPITLTTIGFGDYVALQTKGALQK [F2P], the protein stability index worked out at 2.5. Same read-out and setting: under CIITLTTIGFGDYVALQTKGALQK [F2I] stands 2.62. On the same count and under the same terms, under CYITLTTIGFGDYVALQTKGALQK [F2Y] stands 1.79; under CRITLTTIGFGDYVALQTKGALQK [F2R], 2.18.

On to CMITLTTIGFGDYVALQTKGALQK [F2M], for which the protein stability index is 1.43. CDITLTTIGFGDYVALQTKGALQK [F2D]: the protein stability index came out at 1.99. For the variant CHITLTTIGFGDYVALQTKGALQK [F2H], the protein stability index was determined as 2.03.

Regarding CKITLTTIGFGDYVALQTKGALQK [F2K], the protein stability index amounted to 2.4. Regarding CEITLTTIGFGDYVALQTKGALQK [F2E], the protein stability index was determined as 1.02. For the variant CFIDLTTIGFGDYVALQTKGALQK [T4D], the protein stability index is 2.54. On to CFICLTTIGFGDYVALQTKGALQK [T4C], for which the protein stability index worked out at 3.91. Still for that read-out and setting: under CFIQLTTIGFGDYVALQTKGALQK [T4Q] stands 1.99; under CFIGLTTIGFGDYVALQTKGALQK [T4G], 2.63. Take CFIELTTIGFGDYVALQTKGALQK [T4E]: the protein stability index is 2.07.

For CFISLTTIGFGDYVALQTKGALQK [T4S], the protein stability index stood at 3.03. The same measure, in the same setting: to CFIPLTTIGFGDYVALQTKGALQK [T4P] belongs 2.13; to CFIRLTTIGFGDYVALQTKGALQK [T4R], 2.99; to CFIILTTIGFGDYVALQTKGALQK [T4I], 1.52. As for CFIFLTTIGFGDYVALQTKGALQK [T4F], the protein stability index was 2.95. Same read-out and setting: under CFIALTTIGFGDYVALQTKGALQK [T4A] stands 2.99; under CFIVLTTIGFGDYVALQTKGALQK [T4V], 2.25; under CFIHLTTIGFGDYVALQTKGALQK [T4H], 2.23.

For the variant CFIKLTTIGFGDYVALQTKGALQK [T4K], the protein stability index was determined as 3.64. CFINLTTIGFGDYVALQTKGALQK [T4N]: the protein stability index came to 3.41. On the same count and under the same terms, under CFIMLTTIGFGDYVALQTKGALQK [T4M] stands 3.53.

Take KFITLTTIGFGDYVALQTKGALQK [C1K]: the protein stability index came to 2.05.

As to HFITLTTIGFGDYVALQTKGALQK [C1H], the protein stability index came out at 3.02.

Consider AFITLTTIGFGDYVALQTKGALQK [C1A], for which the protein stability index was 2.27. The same measure, in the same setting: under QFITLTTIGFGDYVALQTKGALQK [C1Q] stands 2.53; under DFITLTTIGFGDYVALQTKGALQK [C1D], 1.57; under GFITLTTIGFGDYVALQTKGALQK [C1G], 1.26. On to WFITLTTIGFGDYVALQTKGALQK [C1W], for which the protein stability index was found to be 3.09. Still for that read-out and setting: to IFITLTTIGFGDYVALQTKGALQK [C1I] belongs 3.52; to PFITLTTIGFGDYVALQTKGALQK [C1P], 1.66. On the same count and under the same terms, to EFITLTTIGFGDYVALQTKGALQK [C1E] belongs 2.02; to LFITLTTIGFGDYVALQTKGALQK [C1L], 4.01. Still for that read-out and setting: under SFITLTTIGFGDYVALQTKGALQK [C1S] stands 2.4; under MFITLTTIGFGDYVALQTKGALQK [C1M], 3.33.

For NFITLTTIGFGDYVALQTKGALQK [C1N], the protein stability index worked out at 2.2. Still for that read-out and setting: to TFITLTTIGFGDYVALQTKGALQK [C1T] belongs 3.37; to RFITLTTIGFGDYVALQTKGALQK [C1R], 2.57. On to CFDTLTTIGFGDYVALQTKGALQK [I3D], for which the protein stability index is 2.82. Still for that read-out and setting: under CFSTLTTIGFGDYVALQTKGALQK [I3S] stands 2.11. Still for that read-out and setting: under CFETLTTIGFGDYVALQTKGALQK [I3E] stands 2.03. With CFHTLTTIGFGDYVALQTKGALQK [I3H], the protein stability index came to 1.82. As for CFATLTTIGFGDYVALQTKGALQK [I3A], the protein stability index was 2.03. For CFWTLTTIGFGDYVALQTKGALQK [I3W], the protein stability index amounted to 2.2. The same measure, in the same setting: to CFKTLTTIGFGDYVALQTKGALQK [I3K] belongs 2.06; to CFCTLTTIGFGDYVALQTKGALQK [I3C], 2.68; to CFQTLTTIGFGDYVALQTKGALQK [I3Q], 2.13. In the case of CFGTLTTIGFGDYVALQTKGALQK [I3G], the protein stability index came out at 1.68. On the same count and under the same terms, under CFTTLTTIGFGDYVALQTKGALQK [I3T] stands 1.87; under CFNTLTTIGFGDYVALQTKGALQK [I3N], 1.86; under CFYTLTTIGFGDYVALQTKGALQK [I3Y], 2.82. The same measure, in the same setting: under CFRTLTTIGFGDYVALQTKGALQK [I3R] stands 1.78; under CFFTLTTIGFGDYVALQTKGALQK [I3F], 1.52. The same measure, in the same setting: under CFMTLTTIGFGDYVALQTKGALQK [I3M] stands 2.05; under CFLTLTTIGFGDYVALQTKGALQK [I3L], 2.05.

For the variant CFPTLTTIGFGDYVALQTKGALQK [I3P], the protein stability index is 2.68.

In another data set the parent is B2. Described as above. Particulars: c terminus: a fixed tail appended.
Consider TYWEHWTSQGQVRMRLFGQRCQKF [C24F], for which the protein stability index worked out at 2.78.

Consider TYWEHWTSQGQVRMRLFGQRCQKT [C24T], for which the protein stability index stood at 2.41. On to TYWEHWTSQGQVRMRLFGQRCQKY [C24Y], for which the protein stability index is 2.15. Take TYWEHWTSQGQVRMRLFGQRCQKP [C24P]: the protein stability index was 1.69.

Take TYWEHWTSQGQVRMRLFGQRCQKM [C24M]: the protein stability index is 2.29. TYWEHWTSQGQVRMRLFGQRCQKE [C24E]: the protein stability index was determined as 2.34.

As to TYWEHWTSQGQVRMRLFGQRCQKK [C24K], the protein stability index was determined as 3.24. Still for that read-out and setting: under TYWEHWTSQGQVRMRLFGQRCQKG [C24G] stands 2.2. Same read-out and setting: under TYWEHWTSQGQVRMRLFGQRCQKV [C24V] stands 2.03; under TYWEHWTSQGQVRMRLFGQRCQKN [C24N], 2.22.

Take TYWEHWTSQGQVRMRLFGQRCQKL [C24L]: the protein stability index stood at 2.2. Still for that read-out and setting: under TYWEHWTSQGQVRMRLFGQRCQKA [C24A] stands 2.31; under TYWEHWTSQGQVRMRLFGQRCQKQ [C24Q], 2.28. Turning to TYWEHWTSQGQVRMRLFGQRCQKH [C24H], the protein stability index came to 2.07. As to TYWEHWTSQGQVRMRLFGQRCQKD [C24D], the protein stability index stood at 2.53. Still for that read-out and setting: to TYWEHWTSQGQVRMRLFGQRCQKR [C24R] belongs 2.29. With TYWEHWTSQGQVRMRLFGQRCQKW [C24W], the protein stability index was found to be 1.54. Still for that read-out and setting: under TYWEHWTSQGQVRMRLFGQRCQHC [K23H] stands 1.1; under TYWEHWTSQGQVRMRLFGQRCQTC [K23T], 1.07; under TYWEHWTSQGQVRMRLFGQRCQSC [K23S], 1.48. Same read-out and setting: to TYWEHWTSQGQVRMRLFGQRCQQC [K23Q] belongs 1.92. The same measure, in the same setting: under TYWEHWTSQGQVRMRLFGQRCQPC [K23P] stands 1.65. Regarding TYWEHWTSQGQVRMRLFGQRCQRC [K23R], the protein stability index came to 1.4. Regarding TYWEHWTSQGQVRMRLFGQRCQGC [K23G], the protein stability index was 1.15. Same read-out and setting: under TYWEHWTSQGQVRMRLFGQRCQEC [K23E] stands 1.79; under TYWEHWTSQGQVRMRLFGQRCQYC [K23Y], 1.67.
